{"source": "patent US9758785B2", "about": "“miR-520 microRNAs sensitize cancers to platinum-based therapy” (BAYLOR COLLEGE OF MEDICINE, priority 2012, dated 2017)", "molecules": {"B1": {"name": "hsa-mir-520h MI0003175 (nucleic acid, listed as Homo sapiens)", "chain": "UCCCAUGCUGUGACCCUCUAGAGGAAGCACUUUCUGUUUGUUGUCUGAGAAAAAACAAAGUGCUUCCCUUUAGAGUUACUGUUUGGGA", "modifications": "expressed or natural sequence", "notes": "synthetic mimic or stably expressed from pLemiR vector; written miR-520g/h interchangeably"}}, "key": {"SVOK3ip1 cells": {"test_system": "SVOK3ip1 cells", "assay": "Spheroid formation", "format": "cell-based, human", "details": "cells stably expressing mimics"}, "OVCAR8 xenografts": {"test_system": "OVCAR8 xenografts", "assay": "Intraperitoneal ovarian cancer xenograft growth and metastasis", "format": "in vivo, mice", "details": "for Total intraperitoneal tumor burden: between the three groups", "description": "Permission to perform animal experiments was obtained from the Institutional Animal Care and Use Committee (IACUC) for Baylor College of Medicine. Eight-week female athymic (Foxn1^nu/nu) mice were purchased from the National Cancer Institute-Charles River and maintained on a standard diet ad lib. Each animal was inoculated intraperitoneally with 2.5×10^6 cells stably transfected with vector driving miR-520h, a non-targeting miRNA control or empty vector. Expression of miR-520h was measured in cell lines using Taqman assays immediately prior to inoculation. Tumor xenografts were followed weekly for tumor progression or regression using the Image Station In-Vivo FX system (Kodak Molecular Imaging Systems, New Haven, Conn.) using endogenous RFP encoded by the pLemiR vector as a tag. At each time point, mice were anesthetized with isoflurane and placed in an imaging chamber, after which, fluorescent intensity images with x-ray overlay were obtained and analyzed. At the completion of the study, mice were euthanized after sedation under isoflurane (Abbott Laboratories, North Chicago, Ill.). For experiments involving treatment, cisplatin was administered at 5 mg/kg to mice by tail vein injection weekly for 4 weeks, after which, 1.5 mg/kg was administered biweekly. Tumor volume and distribution for all animals in each experiment were documented and correlated with imaging results.\nThe in vitro observations indicate that miR520g/h and/or miR-520a alter the proliferations of established ovarian cancer cell lines and in some embodiments are reasonably expected to promote their growth and metastasis in vivo. The inventors utilized xenograft models to characterize this embodiment. Foxn1^nu/nu mice were implanted subcutaneously or intraperitoneally with 2.5 million cells stably transfected with miR-520g/h, non-silencing microRNA control or empty vector alone. […] This difference was documented not only when tumor burden was measured according to the number and size of RFP active tumors that met imaging thresholds, but could also directly measured at necropsy (FIG. 5F). […]"}, "ATM": {"test_system": "ATM", "assay": "Western blot of ATM in OVCAR8 cells", "format": "cell-based, human", "details": "for ATM degradation / cleavage product (ΔATM): OVCAR8, increasing concentrations of cisplatin; for ATM protein expression: OVCAR8 stably expressing the microRNA vs non-silencing control or empty vector", "description": "Whole cell lysates equivalent to 30 μg of protein were resolved on 4-12% gradient SDS-PAGE. Resolved proteins were transferred onto PVDF membranes using the iBlot system (Invitrogen). Rabbit polyclonal and/or mouse monoclonal antibodies specifically recognizing ATM, phospo-ATM (Ser1981) CHK1 phospho-CHK1 (Ser216), p21, phospo-CHK2 ([…]), BCL2, XIAP, CDC25A were obtained from Cell Signaling Technologies (Danvers, Mass.). A rabbit polyclonal antibody recognizing FANCD2 was also purchased from Abcam (Cambridge, Mass.). Protein expression was visualized using species-specific, horseradish peroxidase-conjugated secondary antibody (Cell Signaling) and ECL Plus chemiluminescent substrate (Amersham, Buckinghamshire, UK)."}, "[1]": {"test_system": "established ovarian cancer cell lines", "assay": "Proliferation or apoptosis in established ovarian cancer cell lines after mimic transfection", "format": "cell-based, human", "details": "mimics vs control cultures; cell lines SKOV4, HEY, OVCAR8, OVCAR5", "description": "Established ovarian cancer cell lines were obtained from the ATCC (OVCAR8, OVCAR5) and the University of Texas M.D. Anderson Cancer Center (HEYA8, SKOV3ip1). All cell lines were maintained at 37° C. in RPMI 1640 media (Invitrogen, Carlsbad, Calif.) supplemented with 10% fetal bovine serums (Hyclone, Logan, Utah) and 1% penicillin/streptomycin (Gibco, Carlsbad, Calif.). MicroRNA mimics and mimic controls (Dharmacon, Lafayette, Colo.) were transiently transfected into actively growing cultures using Lipofectamine 2000 (Invitrogen, Carlsbad, Calif.). After a 24-hour incubation, transfected cultures were washed, passaged and seeded into 96 well plates. Proliferation and apoptosis were measured at 72, 96 and 120 hours after transfection using standard assays (Cell Titer 96 Aqueous One; Caspase Glo 3/7; Promega, Madison, Wis.). pLemiR expression vectors (Open Biosystems/Thermo, Huntsville, Ala.) were prepared according to manufacturer's instructions and transfected into cells using Fugene 6 (Roche, Indianapolis, Ind.). Following transfection, stable clones were selected using puromycin (Invitrogen) at doses optimized for each line. […] Viability was assessed across a clinically relevant range of cisplatin concentrations using an MTS assay (Promega). […]"}, "BRCA1": {"test_system": "BRCA1", "assay": "qPCR gene response to cisplatin in OVCAR8 cells", "format": "cell-based, human", "details": "OVCAR8 stable clones vs non-silencing control", "description": "(§1) Total RNA was extracted from cell pellets using the mirVana miRNA extraction kit (Ambion, Austin, Tex.) according to the manufacturer's instructions. Levels of microRNA expression were examined using Mature MicroRNA Taqman assays (Applied Biosystems, Foster City, Calif.) using U6 as a control. For all gene expression assays, cDNA was prepared using qScript cDNA supermix (Quanta Biosciences, Gaithersburg, Md.). TaqMan gene expression assays (Applied Biosystems) were used to measure expression of specific target genes according to the manufacturer's instructions. All reactions were performed in triplicate using OneStepPlus real time PCR system (Applied Biosystems). All qPCR results are reported using the ΔΔCT method (17)."}, "CDC25c": {"test_system": "CDC25c", "assay": "qPCR gene response to cisplatin in OVCAR8 cells", "format": "cell-based, human", "details": "OVCAR8 stable clones vs non-silencing control", "description": "as §1"}, "CHK2": {"test_system": "CHK2", "assay": "qPCR gene response to cisplatin in OVCAR8 cells", "format": "cell-based, human", "details": "OVCAR8 stable clones vs non-silencing control", "description": "as §1"}, "CASP7": {"test_system": "CASP7", "assay": "qPCR gene response to cisplatin in OVCAR8 cells", "format": "cell-based, human", "details": "OVCAR8 stable clones vs non-silencing control", "description": "as §1"}, "CHK1": {"test_system": "CHK1", "assay": "qPCR gene response to cisplatin in OVCAR8 cells", "format": "cell-based, human", "details": "OVCAR8 stable clones vs non-silencing control", "description": "as §1"}, "OVCAR8 cells": {"test_system": "OVCAR8 cells", "assay": "Proliferation assay (MTS, Cell Titer 96 Aqueous One)", "format": "cell-based, human", "details": "for Proliferation: no cisplatin", "description": "(§2) Established ovarian cancer cell lines were obtained from the ATCC (OVCAR8, OVCAR5) and the University of Texas M.D. Anderson Cancer Center (HEYA8, SKOV3ip1). All cell lines were maintained at 37° C. in RPMI 1640 media (Invitrogen, Carlsbad, Calif.) supplemented with 10% fetal bovine serums (Hyclone, Logan, Utah) and 1% penicillin/streptomycin (Gibco, Carlsbad, Calif.). MicroRNA mimics and mimic controls (Dharmacon, Lafayette, Colo.) were transiently transfected into actively growing cultures using Lipofectamine 2000 (Invitrogen, Carlsbad, Calif.). After a 24-hour incubation, transfected cultures were washed, passaged and seeded into 96 well plates. Proliferation and apoptosis were measured at 72, 96 and 120 hours after transfection using standard assays (Cell Titer 96 Aqueous One; Caspase Glo 3/7; Promega, Madison, Wis.). pLemiR expression vectors (Open Biosystems/Thermo, Huntsville, Ala.) were prepared according to manufacturer's instructions and transfected into cells using Fugene 6 (Roche, Indianapolis, Ind.). Following transfection, stable clones were selected using puromycin (Invitrogen) at doses optimized for each line. Rates of proliferation and apoptosis were examined in stable transfectants 24, 48, 72 and 96 hours after selected cells had been passaged and dispensed into 96 well plates. Viability was assessed across a clinically relevant range of cisplatin concentrations using an MTS assay (Promega). Cisplatin was obtained from Teva Pharmaceuticals (Irvine, Calif.)."}, "SKOV3ip1 cells": {"test_system": "SKOV3ip1 cells", "assay": "Proliferation assay (MTS, Cell Titer 96 Aqueous One)", "format": "cell-based, human", "details": "no cisplatin", "description": "as §2"}}, "note": "“Also recorded” adds a separate entry of the source.", "data": [{"molecule": "B1", "values": [{"measurement": "Capacity to form spheroids", "setting": "SVOK3ip1 cells", "value": "decreased capacity to form spheroids"}, {"measurement": "Number and size of intraperitoneal implants", "setting": "OVCAR8 xenografts; OVCAR8 cells stably expressing the microRNA, intraperitoneal, no cisplatin, vs non-silencing control or empty vector, listed as miR-520g/h", "value": "larger number of smaller xenografts; also recorded: large number of smaller implants"}, {"measurement": "Total intraperitoneal tumor burden", "setting": "OVCAR8 xenografts", "value": "did not differ significantly"}, {"measurement": "Total intraperitoneal tumor burden", "setting": "OVCAR8 xenografts; listed as miR-520g/h", "value": "did not differ"}, {"measurement": "ATM degradation / cleavage product (ΔATM)", "setting": "ATM", "value": "induced both the phosphorylation and degradation"}, {"measurement": "ATM degradation / cleavage product (ΔATM)", "setting": "ATM; listed as MiR-520h", "value": "promotes a proteolytic degradation"}, {"measurement": "ATM degradation / cleavage product (ΔATM)", "setting": "ATM; listed as miR-520g/h", "value": "increased levels"}, {"measurement": "Phosphorylated ATM level", "setting": "ATM; OVCAR8 stably expressing the microRNA", "value": "decreased levels"}, {"measurement": "ATM protein expression", "setting": "ATM", "value": "decreased levels"}, {"measurement": "ATM protein expression", "setting": "ATM; listed as Mir-520g/h", "value": "markedly reduced"}, {"measurement": "ATM protein expression", "setting": "ATM; listed as miR-520g/h", "value": "significantly less"}, {"measurement": "Impact on proliferation or apoptosis", "setting": "[1]", "value": "significantly impacted"}, {"measurement": "BRCA1 expression response to cisplatin", "setting": "BRCA1", "value": "blunts the responses"}, {"measurement": "BRCA1 expression response to cisplatin", "setting": "BRCA1; listed as miR-520g/h", "value": "significantly less"}, {"measurement": "CDC25C expression response to cisplatin", "setting": "CDC25c", "value": "blunts the responses"}, {"measurement": "CHK2 expression response to cisplatin", "setting": "CHK2", "value": "blunts the responses"}, {"measurement": "Caspase 7 expression response to cisplatin", "setting": "CASP7", "value": "targeted; also recorded: blunts the responses"}, {"measurement": "Caspase 7 expression response to cisplatin", "setting": "CASP7; listed as miR-520g/h", "value": "significantly less"}, {"measurement": "CHK1 expression response to cisplatin", "setting": "CHK1", "value": "inhibited; also recorded: blunts the responses"}, {"measurement": "Proliferation", "setting": "OVCAR8 cells; OVCAR8, transient/acute mimic transfection vs non-silencing control", "value": "significantly reduced"}, {"measurement": "Proliferation", "setting": "OVCAR8 cells; OVCAR8, transient/acute mimic transfection vs non-silencing control, listed as Mir-520g/h", "value": "significantly increased"}, {"measurement": "Proliferation", "setting": "OVCAR8 cells; OVCAR8 clones stably expressing the microRNA", "value": "enhanced the proliferation"}, {"measurement": "Increase in proliferation", "setting": "OVCAR8 cells; mimic, transient, 96 hours following transfection, vs non-silencing control", "value": 19, "unit": "%"}, {"measurement": "Proliferation", "setting": "SKOV3ip1 cells; SKOV3ip1, acute mimic transfection", "value": "significantly reduced"}, {"measurement": "Proliferation", "setting": "SKOV3ip1 cells; SKOV3ip1 clones stably expressing the microRNA", "value": "enhanced the proliferation"}]}]}
